Reference: the nanobody polyreactivity screen of Harvey et al. (2022)

test: yeast display, Sf9 membrane polyspecificity reagent, FACS + sequencing; frameworks hold sequencing errors
How it was run: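 Nanobodies came from a synthetic yeast display library in Saccharomyces cerevisiae BJ5465, induced with galactose for 36–48 hours and stained for 1 hour at 4 °C with 10% biotinylated, detergent-solubilized Sf9 membrane reagent. Cells were enriched on streptavidin microbeads and then FACS-sorted, with low and high (top ~1%) gates set on anti-HA fluorescence for expression and streptavidin fluorescence for reagent binding. Each polyreactivity label reflects the gate a clone came from. Genes were amplified by colony PCR, sequenced by MiSeq 2 × 250 and filtered by CDR length.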

Row | Sequence | polyreactivity (PSR sort gate)
1 | QVQLEESGGGLVQAGGSLRLSCAASGSTFESYAMGWYRQAPGKERELVAAISWRVGSTYYADSVKGRFTISRDNAKNTFYLQMNILKPEDTAVYYCASKGWYSHYGGYDYWGQGTQVTVSS | low polyreactivity
2 | QVQLEESGGGLVQAGGSLRLSCAASGSTFHINAMGWYRQAPGKEREFVADINWSGGSTYYADSVKVSFTISRDNAKNTVYLQMNSLKPADTAVYYFAADVGVFTYSPYDAGEHDYWGQGTLVTVSS | low polyreactivity
3 | QVQLEESGGGLVQAGGSLRLSCAASGSTFIVNAMGWYRQAPGKERELVATISGGDSTDYADSVKGRFTISRDNAKNTVYLQMKSLKPEDTAVYYCNAEVHQYYFTPYDYWGQGTQVTFSS | low polyreactivity
4 | QVQLEESGGGLVQAGGSLRLSCAASGSTFTFYAMGRYRQAPGKERELVAAINGRGGSTYYADSVKGRFTISRDNAKNTVYLQMNSLKPEDTAVYYCATRLYYSVRYNMGYWGQGTQVTVSS | high polyreactivity
5 | QVQLEESGGGLVQAGGSLRLSCAASGSTFYDYAMGWYRQAPGKERELVAAINGNGDSTYYADSVKGRFTISRDNAKNTVYLQMNSLKPEDTAVYYCAAYLGWGYDYWGQGTLVTVSS | low polyreactivity
6 | QVQLEESGGGLVQAGGSLRLSCAASGSTFYGYGMGWYRQAPGKERELVAAITGSGDTTYYADSVKGRFTISRDNAKNTVYLQMNSLKTEDTAVYYCNARWHAEYDYWGQGTQVTVSS | low polyreactivity
7 | QVQLEESGGGLVQAGGSLRLSCAASGSTFYKYAMGWSRQAPGKERELVASITWSGTSTYYADSVKGRFTISRDNAKNTVYLQMNSLKPEDTAVYYCNAGLEYYYWGYTWEFDYWGQGTQVTVSS | low polyreactivity
8 | QVQLEESGGGLVQAGGSLRLSCAASGSTFYVYAMGWYIQAPGKERELVAAITDSGGSTYADSVKGRFTISRDNAKNTVYLQMNSLKPEDTAVYADSTYTWYYYYWGQGTQVTVSS | low polyreactivity
9 | QVQLEESGGGLVQAGGSLRLSCAASGSTFYYNAIGWYRQAPGKERELVAGITSGTGTKYADSVKGRFTISRDNAKNRVYLQMNSLKPEDTAVYYCAKDGTRYGSAPFGYWGQGTQVTVSS | low polyreactivity
10 | QVQLEESGGGLVQAGGSLRLSCAASGSTFYYYALGWYRQAPGKERELVATINKIVGITYYADSVKGRFTISRDNAKNTVYLQRNSLKPEDTAVYYCAVQDTSYDVQYSYGYWGQGTQVNVSS | low polyreactivity
11 | QVQLEESGGGLVQAGGSLRLSCAASGTTFGINCYGMYRQAPGKERELVAGISVSGGSTYYADSVNGRFTISRDNAYNTVYLQMNSLKPEDTAVYYCAAKWFNRDFDYWGQGTQVTVSS | low polyreactivity
12 | QVQLEESGGGLVQAGGSLRLSCAASGYIFSQYAMGWYRPAPGKERELVASISGSGSSTYYADSVKGRFTISRDNAKNTVYLQMNSLKPADTAVFYCAAEWTWGWYITFDYWGQGTQVTVSS | high polyreactivity
13 | QVQLEESGGGLVQAGGSLRLSCAASGYNFVYYAMGWYRQAPGKERELDAAITGRGGSTYYADSVKGRFTISRDNAKNTVYLQMNSLKPEDTAVYYCAKKRIGPVKQFGRDYNYWGQGTQVTVSS | high polyreactivity
14 | QVQLEESGGGLVQAGGSLRLSCAASGYTVVLYAMGCDIQAPGKERELVAVISWSGGSTYYADSVKGRFTISRDNAKNTVYLQMNSLKPEDTAVYYCAVSRYYNDYWGQGTQVTVSS | low polyreactivity
15 | QVQLEESGGGLVQAGGSLRLSCAASVSIFFVNAMGWYRQAPGKERELVASISRDGSTNYADSVKGRFTISRDNAKNTVYLQMNSLKPEVTAVYYCNGLSADWYPEEDYWGQGTQVTVSS | low polyreactivity
16 | QVQLEESGGGLVQAGGSLRLSCAGSGRNFGVNTMRWYRQATGKERDLVAAISFSGVSTYYADSVKGRFTISRDNAKNTVYLQMNSLKPEDTPVYYCAAVPYRQYPCGGYWGQGTQVTVSS | low polyreactivity
17 | QVQLEESGGGLVQAGGSLRLSCDASGRTFDTNAMGWYIQAPGKERELVAVITARGGNTSYADSVKGRFTISRDNSKNTVYLQMNSLKPEDTAVYYCAAPADDTVHYQNYYWGQGTQVTVSS | low polyreactivity
18 | QVQLEESGGGLVQAGGSLRLSCPASGYTFESNAMGWSRQAPRKERELVAAINGGGGTYYADSVKGRFTISRDNGKNTVYLQMNSLKPEDTAVNVDIGFAYVPNYDYWGQGTQVTVSS | low polyreactivity
19 | QVQLEESGGGLVQAGGSLRLSSAASGFIYVYAMGWYRQAPGKVRELVAAITATGDSTYYADSVKGRFTISRDNAKNTVYLQMNSLKPEDTAVYYCARNVNAQKVLGGFDSWGQGTQVNVSS | low polyreactivity
20 | QVQLEESGGGLVQAGGSLRLSSAASGRTFYDNTMGWYRQSPVKERELVAAISRGGSTYADSVKGRFTISRDNAKNSVYLQMNSLKPEDTAVYYCAAVPRYQYGYWGQGTQVTVSS | low polyreactivity
21 | QVQLEESGGGLVQAGGSLRLSSPASGFIFRYYAMGWYRQAPGKERELVAAISGRGGSTYYADSVKGRFTISRDNAKNTVYLQMNSLKPEDTAVYYCAVDVPSQGGDYWGQGTQVTVSS | high polyreactivity

Row | Sequence | polyreactivity (PSR sort gate)
22 | QVQLEESGGGLVQAGGSLRLTCAASGRIFHSNDMGWNRQAPGKERELVAAITKVGGTNYADSVKGRFTISRDNAKNTVSLQMNSLKPEDTAVYYCAAAFYLYSPISGVYLSYSEYDYWGQGSQVTVSS | high polyreactivity
23 | QVQLEESGGGLVQAGGSLRLTCAASGRTIVYNAMGWYRQAPGKERELVAAIDGGTGSTYYADSVKGRFTISRDNAKNTVYLEMNCLKPEDTAVYYCAVETYGGGYPVTYDYWGQGTQVTVSS | low polyreactivity
24 | QVQLEESGGGLVQAGGSLRLTCAASGSTSQIYAMGWYRQAPGKERELVAAINGVGSTNYADSVKGRFTISRDNAKNTVYLQMNSLKPEDTAVYYCAADGTALHEYLGDYDYWGQGTQVTVSS | low polyreactivity
25 | QVQLEESGGGLVQAGGSLRLTCAGSGSIFDGNSMGWDRQAPGKEMELVASISWSGGTTYYADSVKGRFTISRDNATNTVYLQMNSLIPEDTAVYYCNKAGGYRRYSFWSGDYWAGLDFLGQGTQVTVSS | low polyreactivity
26 | QVQLEESGGGLVQAGGSLRLTCAGSGSISYRYDMGWYRQATGKEMELVAVITGSGGSTYYADSVKGRFTISRDNAKNTVYLQMNSLKPEDTAVYYCANEPGENWTVSWRDFDFWGQGTQVTVSS | low polyreactivity
27 | QVQLEESGGGLVQAGGSLRVSCAASGRTSEIYTLGGYRTAPGKERELVASINTNYADSGKGRFTISRDIAKNTVYLQLISLKPDDTAVYYCNADDTIEFNYWGQGTQVTVSW | low polyreactivity
28 | QVQLEESGGGLVQAGGSLRVSCAASGSILIPNAMGWYRQAPGKERELVASISKSGGSTYYADSVKGRFTISRDTAKNTVYLQMNSLKPEDTAVYYCAAAFVSVRKRYGYWGQGTQVTVSS | high polyreactivity
29 | QVQLEESGGGLVQAGGSLSLSCAASGSNFVYNAMGWYRQAPGKERELVAVINSGGSTNYADSVKGRFTISRDNAKNTVYIQKNSRKPEDTAVYYCAADRLAVHYYSWYNYWGQGTQVTVSS | low polyreactivity
30 | QVQLEESGGGLVQAGRSLRLSCAASGRTFIRNAMGRYRHAPGQQRELVAAISSRGGRTYYADSVKGRFTISRDNAKTTVSLEMNSLKPEDTAVYYCAADFTYKLDGYDYWGQGSQVTVSS | high polyreactivity
31 | QVQLEESGGGLVQARVSLRLSSAASGFTLWNYAMGLYRQAPGKERELVAGINSGGRTYYADSVKGRFTISRDNAKNTVYLQMKSLKPEDTAVFYCNARGWSSFSHNSYFMDYWGQGTQVTVSS | high polyreactivity
32 | QVQLEESGGGLVQEGGSLRLSSAASGFTFGKYAMGSYRQAPGKEMEFVASISSSGARTYYADSVKGRFTISRDNAKNTVYLQKNSLKPEDTAVYYCAAAYGRYYYTYDYWGQGTQVTVSS | high polyreactivity
33 | QVQLEESGGGSVQAGGSLRISCAASGFTFFSYTMGWYRQAPGKERELVAAISKRGSRTYYADSVKGRFTISRDHAKNTVDLQMNSLKPEDTAVYYCAADAGPEVVHRREDYWGQVTQVTVSS | high polyreactivity
34 | QVQLEESGGGVVQAGGSLRLSCAASGIIFYRYAMGCYRQAPGKERELVAAISKNGGRTYYADSVKGRFTISRDNAKNTVYLQMNSLKPEDTAVYYCNARYGYYLYWGQGTQVTVSS | high polyreactivity
35 | QVQLEESGGGVVQAGGSLRLTCAASASTSYNMGWYTQAPGKERELVAAISYPGGRTYYADSVKGRFTISRDNAKNTVYLQMTCLKPDDTGVYYCAKRIFVTFDSWGQGTQVTVSS | low polyreactivity
36 | QVQLEESGGRLVQAGGSLRLSCAASGRTFYVYALGWYRQAPGKEREFVAAISGSGGSTFYADSVKGRFTISRDNPKNTVYLQMNSLKPEDTAVYYCATGGSYLYYLKFGHLSAFDYWGQGTQVTVSS | low polyreactivity
37 | QVQLEESGGRLVQAGGSLRLSCAASGSTFQTYAMGWYRQAPGKERELVAAITWRGGSTYYADSVKGRFTISRDNAKNTVYLQMNSLKPEDTAVYYCAAKWHGAHDHRAAYESWGQGTQVTVSS | low polyreactivity
38 | QVQLEESGGSIVQAGGSLRLSCAASGYTFLGNAMGWYRKAPGKERELVAAISSGGTTFYADSVMGRFTISRDNAKNTVYLQMNSLNPEDTAVYYCAAKDTTVFYYDDDYWGQGTQVTVSS | low polyreactivity
39 | QVQLEESGRGLVQAGGSLRLSCAASGNTLGYNAMGWYRQAPGKVRELVATFRGSGGITYYADSVKGRFTISRDNALNTVYLQMNSLKPEDTAVYYCANVYKSRVKGDHWGQGTQVTVSS | low polyreactivity
40 | QVQLEESGRGLVQAGGSLRLSCAASGSIFIVYAIGWYRQAPGKERELVAAINDGGSTSYADSVKGRFTISRDNAKNTVYLQMNSLKPEDTAVYFCAAETYLGNDYWEDYYWGQGTQVTVSS | low polyreactivity
41 | QVQLEESGVGLVQAGGSLRLICAASGITLFHYVMGWYRQAPGKERELVAVISSSGGSTYYADSVKGRFTISRDNAKNTVYLQMNSLKPEDTAVYYCAAETDSRKARVLYDCWGQGTQVTVSS | high polyreactivity
